Test [1] has as its target NlpA-ZZ fusion protein. The experiment in a line: flow cytometry of NlpA-ZZ spheroplasts labeled with 5 nM FITC-conjugated Human IgG; residual fluorescence at Time 180 min. Background: Flow cytometry measures light scatter and fluorescence of single cells or particles in a stream.
The target in test [2] is NlpA-ZZ fusion protein. In words: flow cytometry of NlpA-ZZ spheroplasts labeled with 5 nM FITC-conjugated Human IgG; residual fluorescence at Time 20 min.
Test [3] concerns the target NlpA-ZZ fusion protein. The experiment in a line: flow cytometry of NlpA-ZZ spheroplasts labeled with 5 nM FITC-conjugated Human IgG; residual fluorescence at Time 240 min.
Test [4] concerns the target NlpA-80R(scFv).
The target in test [5] is NlpA-ZZ fusion protein. In words: flow cytometry of NlpA-ZZ spheroplasts labeled with 5 nM FITC-conjugated Human IgG; residual fluorescence at Time 10 min.
The target of test [6] is NlpA-ZZ fusion protein. The experiment in a line: flow cytometry of NlpA-ZZ spheroplasts labeled with 5 nM FITC-conjugated Human IgG; residual fluorescence at Time 1440 min.
Test [7] addresses NlpA-ZZ fusion protein. The experiment in a line: flow cytometry of NlpA-ZZ spheroplasts labeled with 5 nM FITC-conjugated Human IgG; residual fluorescence at Time 4320 min.
The target of test [8] is NlpA-ZZ fusion protein. In words: flow cytometry of NlpA-ZZ spheroplasts labeled with 5 nM FITC-conjugated Human IgG; residual fluorescence at Time 30 min.
For test [9], the target named is NlpA-ZZ fusion protein. The experiment in a line: flow cytometry of NlpA-ZZ spheroplasts labeled with 5 nM FITC-conjugated Human IgG; residual fluorescence at Time 0 min.
For test [10], the target named is NlpA-ZZ fusion protein. The experiment in a line: flow cytometry of NlpA-ZZ spheroplasts labeled with 5 nM FITC-conjugated Human IgG; residual fluorescence at Time 120 min.
In test [11] the target is NlpA-ZZ fusion protein. The experiment in a line: flow cytometry of spheroplasts expressing NlpA-ZZ, labeled with 50 nM FITC-conjugated Human IgG.
The target in test [12] is NlpA-ZZ fusion protein. In words: flow cytometry of NlpA-ZZ spheroplasts labeled with 5 nM FITC-conjugated Human IgG; residual fluorescence at Time 60 min.

Turning to “commercial Human IgG antibodies (FITC-conjugated) (antibody)”, the M (FL1-Height) came out at 148 in test [1]; 143 in test [2]; 142 in [3]; 3 in [4]; 150 in test [5]; 146 in [6]. The M (FL1-Height) in test [7] came to 154; in test [8], 147; in test [9], 153; in test [10], 133; in test [11] it was 2760; in [12], 136.

(Values after patent US20130303393A1.)
